For this assay, the target named is Spi-1 transcription factor, expressed in cells. Description: cell-based or functional assay.

As for “IE2 291-364 expressed in cells from pCDNA 3.1/V5-His IE2 291-364 (peptide)”, the inhibition of IL-1β promoter luciferase reporter in LPS-treated RAW 264.7 cells amounted to 50% and the maximum inhibition of the 3.8 kbp complete IL1B regulatory region luciferase reporter in LPS-treated RAW264.7 cells was in the range of 50 to 75%.
